Measured values reported in paper PMC1762419.

Target: endogenous Maf1 (human (endogenous in HeLa)) (UniProt Q9H063)
Test: co-IP; HeLa (cell line 9-8) whole cell extract, immunoprecipitation with anti-Maf1 or anti-GAPDH antibodies; immunoblot with anti-RPC1, anti-Brf1, anti-Maf1

endogenous Maf1 (human (endogenous in HeLa)), sequence (Q9H063 whole entry): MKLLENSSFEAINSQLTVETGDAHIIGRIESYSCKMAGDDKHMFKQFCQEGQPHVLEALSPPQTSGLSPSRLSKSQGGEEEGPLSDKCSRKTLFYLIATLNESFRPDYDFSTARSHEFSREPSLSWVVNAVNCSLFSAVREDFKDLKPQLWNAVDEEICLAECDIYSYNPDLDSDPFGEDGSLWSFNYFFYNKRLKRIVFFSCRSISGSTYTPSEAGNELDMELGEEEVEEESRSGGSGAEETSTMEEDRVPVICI

percent of RPC1 co-immunoprecipitated: 6%
Substance: RPC1, the largest subunit of pol III (endogenous, HeLa) (from UniProt O14802 1-1390) (natural protein)
